In publication PMC5469476:

Experiments:
[1] = target: human glucagon-like peptide-1 receptor (GLP1R) with C-terminal 1D4 epitope, purified in nanodiscs (GLP1R-ND) (human) (UniProt P43220); assay: fluorescence polarisation; fluorescence anisotropy; 50 nM FAM-labeled peptide with 0 to 400 nM freshly prepared GLP1R-ND (or empty-ND); 20 mM Tris-HCl pH 7.4, 150 mM NaCl, EDTA, 3 mM MgCl2; room temperature; single-site binding model; three independent receptor preparations
[2] = target: human glucagon-like peptide-1 receptor (GLP1R) with C-terminal 1D4 epitope, purified in nanodiscs (GLP1R-ND) (human) (UniProt P43220)
[3] = target: human glucagon-like peptide-1 receptor (GLP1R) with C-terminal 1D4 epitope, purified in nanodiscs (GLP1R-ND) (human) (UniProt P43220); assay: fluorescence polarisation

Chain of UniProt P43220 (P43220 24-463): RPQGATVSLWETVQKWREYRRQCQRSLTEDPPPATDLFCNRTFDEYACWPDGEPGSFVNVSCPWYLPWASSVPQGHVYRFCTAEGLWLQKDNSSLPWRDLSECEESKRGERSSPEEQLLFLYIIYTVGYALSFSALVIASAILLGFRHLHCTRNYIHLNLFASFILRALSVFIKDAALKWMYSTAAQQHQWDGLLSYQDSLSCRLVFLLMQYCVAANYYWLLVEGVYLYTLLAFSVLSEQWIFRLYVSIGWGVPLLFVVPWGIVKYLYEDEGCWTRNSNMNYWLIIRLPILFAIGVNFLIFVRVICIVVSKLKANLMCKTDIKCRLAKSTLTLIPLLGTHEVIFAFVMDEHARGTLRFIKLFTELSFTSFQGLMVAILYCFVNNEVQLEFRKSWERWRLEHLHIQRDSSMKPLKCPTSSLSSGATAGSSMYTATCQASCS

Row | Substance | Kd [1] | EC50 of cell-based cAMP assay (receptor on cells, details in S1 Supporting Information) [2] | Kd [3]
1 | FAM-labeled GLP-1-(7-37) (E21K, 5(6)-carboxyfluorescein on the lysine) (peptide) | 284 nM | 1.18 nM | –
2 | FAM-labeled exendin-4 (L21K, 5(6)-carboxyfluorescein on the lysine) (peptide) | – | – | 178 nM
